From patent publication US20250340623A1

Target: human full-length alpha-synuclein (human) (UniProt P37840)
Assay: indirect ELISA on coated full-length alpha-synuclein, O.D. 405 nm

EC50 (read off the curve): 6 ng/mL
Substance: Syn1 (antibody)
